US20130210709A1 (ANCHOR THERAPEUTICS, published 2013)
Ends that are not written are not given here. * marks the point of attachment. Palmitoyl = CCCCCCCCCCCCCCCC(=O)*; NHhexadecyl = CCCCCCCCCCCCCCCCN*

Molecular target: CXCR4 receptor (human, UniProt P61073 1-352)
Test: cell-based or functional assay

Sequence of CXCR4 receptor (P61073 whole entry): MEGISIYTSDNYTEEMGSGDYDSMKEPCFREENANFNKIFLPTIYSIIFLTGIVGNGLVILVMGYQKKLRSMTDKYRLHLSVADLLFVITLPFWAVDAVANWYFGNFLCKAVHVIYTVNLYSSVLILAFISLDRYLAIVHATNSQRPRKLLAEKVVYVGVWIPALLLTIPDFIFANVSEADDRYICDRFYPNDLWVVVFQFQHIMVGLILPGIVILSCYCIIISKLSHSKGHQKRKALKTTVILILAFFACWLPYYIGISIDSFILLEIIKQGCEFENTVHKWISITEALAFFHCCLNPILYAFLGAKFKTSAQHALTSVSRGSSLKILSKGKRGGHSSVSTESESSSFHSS

Binder | AUC (% of), CHTX, CEM, 1.0 uM | AUC (% of), CHTX, CEM, 1.0 um | Max (% of), CHTX, CEM, 1.0 uM | Max (% of), CHTX, CEM, 1.0 um | Peak Ratio, CHTX, CEM, 1.0 uM | Peak Ratio, CHTX, CEM, 1.0 um | Peak Ratio, CHTX, SUP B15, 1.0 uM | AUC (% of), CHTX, SUP B-15, 1.0 uM | Max (% of), CHTX, SUP B-15, 1.0 uM | Peak Ratio, CHTX, SUP B-15, 1.0 uM
Ac-MGYQKKLRSMTDK-NHhexadecyl (SMILES CCCCCCCCCCCCCCCCNC(=O)[C@H](CCCCN)NC(=O)[C@H](CC(=O)O)NC(=O)[C@@H](NC(=O)[C@H](CCSC)NC(=O)[C@H](CO)NC(=O)[C@H](CCCNC(=N)N)NC(=O)[C@H](CC(C)C)NC(=O)[C@H](CCCCN)NC(=O)[C@H](CCCCN)NC(=O)[C@H](CCC(N)=O)NC(=O)[C@H](Cc1ccc(O)cc1)NC(=O)CNC(=O)[C@H](CCSC)NC(C)=O)[C@@H](C)O) [CXCR4 i1 loop compound 59] | 69% | 51.6% | 84.5% | 59.8% | 1 | 1 | – | – | – | –
Palmitoyl-MGYQKKLRSMTDKYRI-NH2 (SMILES CCCCCCCCCCCCCCCC(=O)N[C@@H](CCSC)C(=O)NCC(=O)N[C@@H](Cc1ccc(O)cc1)C(=O)N[C@@H](CCC(N)=O)C(=O)N[C@@H](CCCCN)C(=O)N[C@@H](CCCCN)C(=O)N[C@@H](CC(C)C)C(=O)N[C@@H](CCCNC(=N)N)C(=O)N[C@@H](CO)C(=O)N[C@@H](CCSC)C(=O)N[C@H](C(=O)N[C@@H](CC(=O)O)C(=O)N[C@@H](CCCCN)C(=O)N[C@@H](Cc1ccc(O)cc1)C(=O)N[C@@H](CCCNC(=N)N)C(=O)N[C@H](C(N)=O)[C@@H](C)CC)[C@@H](C)O) [CXCR4 i1 loop compound 49] | 50.9% | – | 62.7% | – | 0.2 | – | – | – | – | –
Palmitoyl-MGYQKKLRSMTDK-NH2 (SMILES CCCCCCCCCCCCCCCC(=O)N[C@@H](CCSC)C(=O)NCC(=O)N[C@@H](Cc1ccc(O)cc1)C(=O)N[C@@H](CCC(N)=O)C(=O)N[C@@H](CCCCN)C(=O)N[C@@H](CCCCN)C(=O)N[C@@H](CC(C)C)C(=O)N[C@@H](CCCNC(=N)N)C(=O)N[C@@H](CO)C(=O)N[C@@H](CCSC)C(=O)N[C@H](C(=O)N[C@@H](CC(=O)O)C(=O)N[C@@H](CCCCN)C(N)=O)[C@@H](C)O) [CXCR4 i1 loop compound 36] | 102% | – | 119% | – | 0.2 | – | 0.2 | – | – | –
Palmitoyl-KKLRSMTDKY-NH2 (SMILES CCCCCCCCCCCCCCCC(=O)N[C@@H](CCCCN)C(=O)N[C@@H](CCCCN)C(=O)N[C@@H](CC(C)C)C(=O)N[C@@H](CCCNC(=N)N)C(=O)N[C@@H](CO)C(=O)N[C@@H](CCSC)C(=O)N[C@H](C(=O)N[C@@H](CC(=O)O)C(=O)N[C@@H](CCCCN)C(=O)N[C@@H](Cc1ccc(O)cc1)C(N)=O)[C@@H](C)O) [CXCR4 i1 loop compound 46] | – | – | – | – | – | – | – | 87.2% | 82.9% | 0.2
Palmitoyl-KKLRSMTDKYRLH-NH2 (SMILES CCCCCCCCCCCCCCCC(=O)N[C@@H](CCCCN)C(=O)N[C@@H](CCCCN)C(=O)N[C@@H](CC(C)C)C(=O)N[C@@H](CCCNC(=N)N)C(=O)N[C@@H](CO)C(=O)N[C@@H](CCSC)C(=O)N[C@H](C(=O)N[C@@H](CC(=O)O)C(=O)N[C@@H](CCCCN)C(=O)N[C@@H](Cc1ccc(O)cc1)C(=O)N[C@@H](CCCNC(=N)N)C(=O)N[C@@H](CC(C)C)C(=O)N[C@@H](Cc1c[nH]cn1)C(N)=O)[C@@H](C)O) [CXCR-4 receptor Compound No. 43] | – | – | – | – | – | – | – | 70.8% | 55.8% | 0.04
Palmitoyl-KKLRSMTDKYRL-NH2 (SMILES CCCCCCCCCCCCCCCC(=O)N[C@@H](CCCCN)C(=O)N[C@@H](CCCCN)C(=O)N[C@@H](CC(C)C)C(=O)N[C@@H](CCCNC(=N)N)C(=O)N[C@@H](CO)C(=O)N[C@@H](CCSC)C(=O)N[C@H](C(=O)N[C@@H](CC(=O)O)C(=O)N[C@@H](CCCCN)C(=O)N[C@@H](Cc1ccc(O)cc1)C(=O)N[C@@H](CCCNC(=N)N)C(=O)N[C@@H](CC(C)C)C(N)=O)[C@@H](C)O) [Compound No. 44 (Pal-KKLRSMTDKYRL-amide)] | – | – | – | – | – | – | – | 25.9% | 31.5% | 0.2
MGYQKKLRSMTD-NH2 (not fully specified (N-terminus); also: further groups not given here) [CXCR4 i1 loop compound 33] | – | – | – | – | 1 | – | – | – | – | –
Palmitoyl-MGYQKKLRSMTDKYRLHLSV-NH2 (SMILES CCCCCCCCCCCCCCCC(=O)N[C@@H](CCSC)C(=O)NCC(=O)N[C@@H](Cc1ccc(O)cc1)C(=O)N[C@@H](CCC(N)=O)C(=O)N[C@@H](CCCCN)C(=O)N[C@@H](CCCCN)C(=O)N[C@@H](CC(C)C)C(=O)N[C@@H](CCCNC(=N)N)C(=O)N[C@@H](CO)C(=O)N[C@@H](CCSC)C(=O)N[C@H](C(=O)N[C@@H](CC(=O)O)C(=O)N[C@@H](CCCCN)C(=O)N[C@@H](Cc1ccc(O)cc1)C(=O)N[C@@H](CCCNC(=N)N)C(=O)N[C@@H](CC(C)C)C(=O)N[C@@H](Cc1c[nH]cn1)C(=O)N[C@@H](CC(C)C)C(=O)N[C@@H](CO)C(=O)N[C@H](C(N)=O)C(C)C)[C@@H](C)O) [CXCR4 i1 loop compound 55] | – | – | – | – | 0.2 | – | – | – | – | –
Palmitoyl-MGYQKKLRSMTDKY-NH2 (SMILES CCCCCCCCCCCCCCCC(=O)N[C@@H](CCSC)C(=O)NCC(=O)N[C@@H](Cc1ccc(O)cc1)C(=O)N[C@@H](CCC(N)=O)C(=O)N[C@@H](CCCCN)C(=O)N[C@@H](CCCCN)C(=O)N[C@@H](CC(C)C)C(=O)N[C@@H](CCCNC(=N)N)C(=O)N[C@@H](CO)C(=O)N[C@@H](CCSC)C(=O)N[C@H](C(=O)N[C@@H](CC(=O)O)C(=O)N[C@@H](CCCCN)C(=O)N[C@@H](Cc1ccc(O)cc1)C(N)=O)[C@@H](C)O) [CXCR4 i1 loop compound 37] | 92.3% | – | 97.8% | – | 0.04 | – | – | 63.5% | 91.1% | 0.2
MGYQKKLRSMTDKYRI-NH2 (not fully specified (N-terminus); also: further groups not given here) [CXCR4 i1 loop compound 48] | 53% | – | 53.5% | – | 5 | – | – | – | – | –
Palmitoyl-VMGYQKKLRSMTD-NH2 (SMILES CCCCCCCCCCCCCCCC(=O)N[C@H](C(=O)N[C@@H](CCSC)C(=O)NCC(=O)N[C@@H](Cc1ccc(O)cc1)C(=O)N[C@@H](CCC(N)=O)C(=O)N[C@@H](CCCCN)C(=O)N[C@@H](CCCCN)C(=O)N[C@@H](CC(C)C)C(=O)N[C@@H](CCCNC(=N)N)C(=O)N[C@@H](CO)C(=O)N[C@@H](CCSC)C(=O)N[C@H](C(=O)N[C@@H](CC(=O)O)C(N)=O)[C@@H](C)O)C(C)C) [CXCR4 i1 loop compound 35] | 57.9% | – | 57% | – | 1 | – | – | 31.7% | 49.3% | 0.2
MGYQKKLRSMTDKYRLHL-NH2 (not fully specified (N-terminus); also: N-terminal T-L: Myr, dual lipid backbone) [CXCR4 i1 loop compound 54] | – | – | – | – | 1 | – | – | – | – | –
Palmitoyl-KKLRSMTDKYR-NH2 (SMILES CCCCCCCCCCCCCCCC(=O)N[C@@H](CCCCN)C(=O)N[C@@H](CCCCN)C(=O)N[C@@H](CC(C)C)C(=O)N[C@@H](CCCNC(=N)N)C(=O)N[C@@H](CO)C(=O)N[C@@H](CCSC)C(=O)N[C@H](C(=O)N[C@@H](CC(=O)O)C(=O)N[C@@H](CCCCN)C(=O)N[C@@H](Cc1ccc(O)cc1)C(=O)N[C@@H](CCCNC(=N)N)C(N)=O)[C@@H](C)O) [CXCR4 i1 loop compound 45] | – | – | – | – | – | – | – | 178% | 194% | 1
Palmitoyl-SGYQKKLRSSTD-NH2 (SMILES CCCCCCCCCCCCCCCC(=O)N[C@@H](CO)C(=O)NCC(=O)N[C@@H](Cc1ccc(O)cc1)C(=O)N[C@@H](CCC(N)=O)C(=O)N[C@@H](CCCCN)C(=O)N[C@@H](CCCCN)C(=O)N[C@@H](CC(C)C)C(=O)N[C@@H](CCCNC(=N)N)C(=O)N[C@@H](CO)C(=O)N[C@@H](CO)C(=O)N[C@H](C(=O)N[C@@H](CC(=O)O)C(N)=O)[C@@H](C)O) [CXCR4 i1 loop compound 69] | 100% | – | 93.1% | – | 1 | – | – | – | – | –

Same assay, conditions: not given

Binder | Peak Ratio, CHTX, CEM, 0.01 uM | Peak Ratio, CHTX, CEM, 0.03 uM | Peak Ratio, CHTX, CEM, 0.1 uM | Peak Ratio, CHTX, CEM, 0.3 uM | Peak Ratio, CHTX, CEM, 3.0 uM
Palmitoyl-KKLRSMTDKYRLH-NH2 (SMILES CCCCCCCCCCCCCCCC(=O)N[C@@H](CCCCN)C(=O)N[C@@H](CCCCN)C(=O)N[C@@H](CC(C)C)C(=O)N[C@@H](CCCNC(=N)N)C(=O)N[C@@H](CO)C(=O)N[C@@H](CCSC)C(=O)N[C@H](C(=O)N[C@@H](CC(=O)O)C(=O)N[C@@H](CCCCN)C(=O)N[C@@H](Cc1ccc(O)cc1)C(=O)N[C@@H](CCCNC(=N)N)C(=O)N[C@@H](CC(C)C)C(=O)N[C@@H](Cc1c[nH]cn1)C(N)=O)[C@@H](C)O) [CXCR-4 receptor Compound No. 43] | 1 | 1 | 0.2 | 0.04 | 0.2
